Like-named read-outs stand apart in the source and are kept apart here.
Key:
[1] = molecular target: T1, recombinant human CTLA4 protein with human IgG1 Fc tag at the C-terminus (Acro biosystems, Cat#CT4-H5255) (human, UniProt P16410 37-162); experiment: capture ELISA: antibody captured on coated plate (anti-human IgG Fc for the chimeric antibodies), biotin human CTLA4-Fc, streptavidin-HRP, OD(450-630)
T1 construct: bought protein; also called human CTLA4-Fc; CTLA4-Fc; not shown: human IgG1 Fc tag at the C-terminus
T1 sequence (looked up): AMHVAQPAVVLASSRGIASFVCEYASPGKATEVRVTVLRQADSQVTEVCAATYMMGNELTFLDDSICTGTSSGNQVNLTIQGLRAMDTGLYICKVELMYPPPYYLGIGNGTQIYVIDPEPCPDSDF
Description: (§1) Plates were washed once with wash buffer (PBS+0.05% v/v Tween-20, PBST) and then blocked with 200 µl/well blocking buffer (PBST with 5% w/v non-fatty milk) for 2 hours at 37° C. […] After a final wash, plates were incubated with 100 µl/well substrate TMB (Innoreagents, Cat#TMB-S-002). The reaction was stopped in 15 minutes at room temperature with 50 µl/well 1M H₂SO₄, and the absorbance of the each well was read on a microplate reader using dual wavelength mode with 450 nm for TMB and 630 nm as the reference wavelength, then the OD (450-630) values were plotted against antibody concentration. Data was analyzed using Graphpad Prism software and EC₅₀ values were reported.
For the capture ELISA, AffiniPure Goat Anti-Human IgG, Fcy fragment specific (Jackson Immuno Research, Cat#109-005-008) was used instead of AffiniPure Goat Anti-Mouse IgG, F(ab′)₂ fragment specific, 100 µl/well.

[2] = molecular target: T1, recombinant human CTLA4 protein with …; experiment: cell-based or functional assay
[3] = molecular target: T1, recombinant human CTLA4 protein with …; experiment: cell based blocking FACS: antibody pre-mixed with human CTLA4-Fc, added to Daudi cells; blocked ligands: cell surface CD80/CD86
Description: (§2) Daudi cells were harvested from cell culture flasks at the log phase, washed twice and re-suspended in PBS containing 2% v/v Fetal Bovine Serum (FACS buffer). […] Cells were washed twice and re-suspended in FACS buffer. Fluorescence was measured using a Becton Dickinson FACS Canto II-HTS equipment. Data was analyzed using Graphpad Prism software and IC₅₀ values were reported.
(§3) In the capture ELISA assay, the 96-well micro plates were coated with 2 µg/ml goat anti-human IgG (AffiniPure Goat Anti-Human IgG, F(ab′)₂ fragment specific, Jackson Immunoresearch, Cat#109-005-097) instead of the goat anti-mouse IgG F(ab′)₂ fragment, 100 µl/well.

[4] = molecular target: T1, recombinant human CTLA4 protein with …; experiment: capture ELISA (plate coated with goat anti-human IgG F(ab')2 per paragraph 181), biotin human CTLA4-Fc, streptavidin-HRP, OD(450-630)
Description: as §1, §3

[5] = molecular target: T2, recombinant human CTLA4-his protein (Acro biosystems, Cat#CT4-H5229) (human, UniProt P16410 37-162); experiment: BLI, Octet; antibody at 5 ug/ml on AHC sensor, CTLA4-his as analyte
T2 construct: bought recombinant protein; not shown: his tag
T2 sequence (looked up): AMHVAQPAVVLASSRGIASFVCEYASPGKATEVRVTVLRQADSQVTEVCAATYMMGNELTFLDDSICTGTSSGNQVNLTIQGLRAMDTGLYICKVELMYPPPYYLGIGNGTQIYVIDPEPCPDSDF
Description: (§4) Briefly, AHC biosensors (anti-human IgG Fc capture, from ForteBio) were presoaked with 10 mM glycine (pH 1.5) for 3 seconds, and then dipped in a well with running buffer (0.5% w/v BSA in PBST) for 3 seconds, the soaking and dipping steps were repeated for three times. […] A new baseline was run for 180 seconds in another well with running buffer. […] Finally, sensors were presoaked with 10 mM glycine (pH 1.5) for 3 seconds, and then were dipped in a well with running buffer for 3 seconds, the soaking and dipping steps repeated for three times. The association and dissociation curves were fit to a 1:1 Langmuir binding model using ForteBio Data Analysis 8.1.

[6] = molecular target: T1, recombinant human CTLA4 protein with …; experiment: cell based blocking FACS: antibody pre-mixed with human CTLA4-Fc, added to Daudi cells; blocked ligands: cell surface CD80/CD86; remark: listed apart in the source
[7] = molecular target: T2, recombinant human CTLA4-his protein …; experiment: BLI, Octet RED96; antibody on AHC sensor, CTLA4-his as analyte
Description: as §4

[8] = molecular target: T3, cynomolgus monkey CTLA4-his protein (Acro biosystems, Cat#CT4-C5227) (cynomolgus monkey, UniProt G7PL88 36-161); experiment: SPR, Biacore; antibody captured on anti-human IgG CM5 chip, CTLA4-his as analyte
T3 construct: bought recombinant protein; also called Cynomolgus CTLA4-his; not shown: his tag
T3 sequence: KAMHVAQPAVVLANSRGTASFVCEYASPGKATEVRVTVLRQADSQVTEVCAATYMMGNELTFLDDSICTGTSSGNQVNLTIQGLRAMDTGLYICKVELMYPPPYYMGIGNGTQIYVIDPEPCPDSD
Description: (§5) Un-reacted moieties on the biosensor surface were blocked with ethanolamine. […] The antigen-antibody association kinetics was followed for 2 minutes and the dissociation kinetics was followed for 10 minutes. The association and dissociation curves were fit to a 1:1 Langmuir binding model using BIAcore evaluation software. […]

[9] = molecular target: T2, recombinant human CTLA4-his protein …; experiment: as above
Description: as §5

[10] = molecular target: T1, recombinant human CTLA4 protein with …; experiment: competitive ELISA: antibody pre-mixed with biotin human CTLA4-Fc, added to plate coated with the benchmark; competitor: coated Yervoy
Description: (§6) Plates were washed once with wash buffer, blocked with 200 µl PBST with 5% w/v non-fatty milk, incubated for 2 hours at 37° C., and washed 4 times.
(§7) After incubation at 37° C. for 40 minutes, plates were washed 4 times again using wash buffer. Then the plates were added and incubated with 100 µl/well streptavidin conjugated HRP (1:10000 dilution in PBST, Jackson Immuno Research, Cat#016-030-084, 100 µl/well) for 40 minutes at 37° C. Plates were finally washed using wash buffer. Finally, TMB was added and the reaction was stopped using 1M H₂SO₄, and the absorbance of the each well was read on a microplate reader using dual wavelength mode with 450 nm for TMB and 630 nm as the reference wavelength, then the OD (450-630) values were plotted against antibody concentration. Data was analyzed using Graphpad Prism software and IC₅₀ values were reported.
as §3

[11] = molecular target: T1, recombinant human CTLA4 protein with …; experiment: capture ELISA: antibody captured on anti-mouse IgG F(ab')2 coated plate, biotin human CTLA4-Fc 26 ng/ml, streptavidin-HRP, OD(450-630)
Description: as §1

[12] = molecular target: T1, recombinant human CTLA4 protein with …; experiment: cell based blocking FACS: antibody pre-mixed with human CTLA4-Fc, added to Daudi cells; blocked ligands: cell surface CD80/CD86; remark: listed apart in the source
Description: as §2

[13] = molecular target: T1, recombinant human CTLA4 protein with …; experiment: cell based blocking FACS: antibody pre-mixed with human CTLA4-Fc (1 ug/mL), added to Daudi cells; blocked ligands: cell surface CD80/CD86
Description: as §2

[14] = molecular target: T1, recombinant human CTLA4 protein with …; experiment: competitive ELISA: antibody pre-mixed with biotin human CTLA4-Fc (65 ng/ml), added to plate coated with the benchmark; competitor: coated Yervoy
Description: as §6, §7

[15] = molecular target: T1, recombinant human CTLA4 protein with …; experiment: cell based blocking FACS: antibody pre-mixed with human CTLA4-Fc, added to Daudi cells; blocked ligands: cell surface CD80/CD86; remark: listed apart in the source
[16] = molecular target: T1, recombinant human CTLA4 protein with …; experiment: cell-based or functional assay; remark: listed apart in the source
[17] = molecular target: T3, cynomolgus monkey CTLA4-his protein …; experiment: SPR, Biacore T200; antibody captured, CTLA4-his as analyte
Description: (§8) Un-reacted moieties on the biosensor surface were blocked with ethanolamine. […] The antigen-antibody association kinetics was followed for 2 minutes and the dissociation kinetics was followed for 10 minutes. The association and dissociation curves were fit to a 1:1 Langmuir binding model using BIAcore evaluation software.

[18] = molecular target: T2, recombinant human CTLA4-his protein …; experiment: as above
Description: as §8

[19] = molecular target: T2, recombinant human CTLA4-his protein …; experiment: BLI, Octet; antibody from cell supernatant on AHC sensor, CTLA4-his as analyte
Description: as §4

B1: chimeric C1D1 anti-CTLA4 antibody (antibody, human IgG4 S228P, kappa, V domains shown)
VH: EVKLDETGGGLVQPGRPLKLSCVASGFTFSDNWMNWVRQSPEKGLEWVAQIRNKPYNYETYYSDSVKGRFTISRDDSKSSVYLQMNNLRVEDMGIYYCTGGMDYWGQGTSVTVSS
VL: DIQMTQSPASLSASVGETVTITCGASEIIYGALNWYQQKQGKSPQLLIYGATNLADGMSSRFSGSGSGRQYSLKISSLHPDDAATYYCQKILSPPPWTFGGGTKLEIKR
notes: mouse variable domains on human IgG4/kappa, made in 293F cells
EC50 [1]: 0.505 nM | EC50 of IL-2 release (GS-J1 T cells + GS-C1/CD80 cells + human CTLA4-Fc, IL-2 HTRF) [2]: 34 nM | IC50 [3]: ~9.96 nM | EC50 [4]: 0.156 nM | Kd [5]: < 0.001 nM | koff [5]: < 1e-07 s⁻¹ | kon [5]: 525000 M⁻¹ s⁻¹ | IC50 [6]: 8.56 nM | Kd [7]: 0.335 nM | koff [7]: 0.000296 s⁻¹ | kon [7]: 884000 M⁻¹ s⁻¹ | Kd [8]: 0.243 nM | koff [8]: 0.000398 s⁻¹ | kon [8]: 1.64e+06 M⁻¹ s⁻¹ | Kd [9]: 0.629 nM | koff [9]: 0.000422 s⁻¹ | kon [9]: 670000 M⁻¹ s⁻¹ | IC50 [10]: 2.11 nM

B2: mouse anti-CTLA4 monoclonal antibody D1D5 (antibody, V domains shown)
VH: EVKLVESGGGLVKPGGSLKLSCAASGFTFSDYGMAWVRQAPGKGPEWVAFISNLAYSVYYADTETGRFTISREDAKNTLYLEMSSLRSEDTAMYYCARSGLPYAMDYWGQGTSVTVSS
VL: DIQMTQTTSSLSASLGDRVTISCRASQDISNYLNWYQQKPDGTVKLLIYYISRLHSGVPSRFSGSGSGTDFSLTISNLEQEDIATYFCQQGRMLPWTFGGGTRLEIK
notes: mouse mAb purified from hybridoma supernatant
EC50 [11]: 0.103 nM | IC50 [12]: 5.82 nM | EC50 [1]: 0.632 nM | EC50 of IL-2 release (GS-J1 T cells + GS-C1/CD80 cells + human CTLA4-Fc, IL-2 HTRF) [2]: 42.3 nM | IC50 [13]: 4.77 nM | EC50 [4]: 0.778 nM | IC50 [14]: 0.646 nM | IC50 [15]: 9.67 nM | IC50 [10]: 5.75 nM | EC50 of IL-2 release (GS-J1 T cells + GS-C1/CD80 cells + human CTLA4-Fc, IL-2 HTRF) [16]: 37.5 nM | Kd [17]: 4.67 nM | koff [17]: 0.00047 s⁻¹ | kon [17]: 101000 M⁻¹ s⁻¹ | Kd [18]: 1.89 nM | koff [18]: 0.000276 s⁻¹ | kon [18]: 146000 M⁻¹ s⁻¹

B3: huD1D5-V9 (antibody, human IgG4 S228P, kappa, V domains shown)
VH: EVQLVESGGGLVKPGGSLRLSCAASGFTFSDYGMAWVRQAPGKGPEWVAFISNLAYSVYYADTETGRFTISRDDAKNSLYLQMNSLRAEDTAVYYCARSGLPYAMDYWGQGTTVTVSS
VL: DIQMTQSPSSLSASVGDRVTITCRASQDISNYLNWYQQKPGKVPKLLIYYISRLHSGVPSRFSGSGSGTDFTLTISSLQPEDVATYYCQQGRMLPWTFGGGTKVEIKR
notes: humanized IgG4/kappa; cell supernatant on Octet, purified antibody in Biacore, ELISA, FACS and the functional assay; also called hu CTLA4 D1D5-V9; huDID5-V9
IC50 [12]: 5.53 nM | EC50 of IL-2 release (GS-J1 T cells + GS-C1/CD80 cells + human CTLA4-Fc, IL-2 HTRF) [2]: 27.3 nM | EC50 [4]: 0.516 nM | Kd [19]: 4.37 nM | koff [19]: 0.000471 s⁻¹ | kon [19]: 108000 M⁻¹ s⁻¹ | Kd [8]: 2.13 nM | koff [8]: 0.000576 s⁻¹ | kon [8]: 271000 M⁻¹ s⁻¹ | Kd [9]: 3.02 nM | koff [9]: 0.000519 s⁻¹ | kon [9]: 172000 M⁻¹ s⁻¹ | IC50 [10]: 0.642 nM

Source: patent publication US20230212304A1 (BIOSION, published 2023)
